Experimental data from the RNAGym collection of RNA variant scans (doi:10.7554/elife.80360).

B1: Hairpin Ribozyme (parent)
chain: GUCCUCUUUCACGUGCGCGUGAAAGAGAGAAGUGAACCAGAGAAACACACGUUGUGGUAUAUUACCUGGUA

Variants of: B1
Test: self-cleavage, relative activity (ratio to wild type); higher = more cleavage; co-transcriptional
With GUCCUCUUUCACGUGCGCGUGAAAGGGAGAAGUGAACCAGAGAAACACACGUCGUGGUAUAUUACCUGGUA the self-cleavage was 0.565. Work on GUCCUCUUUCACGUGCGCGUGAAAGGGAGAAGUGAACCAGAGAAACACACGUAGUGGUAUAUUACCUGGUA yielded a self-cleavage of 0.814. For GUCCUCUUUCACGUGCGCGUGAAAGUGAGAAGUGAACCAGAGAAACACCCGUUGUGGUAUAUUACCUGGUA, the self-cleavage was 0.157. Work on GUCCUCUUUCACGUGCGCGUGAAAGUGAGAAGUGAACCAGAGAACCACACGUUGUGGUAUAUUACCUGGUA yielded a self-cleavage of 0.223. Variant GUCCUCUUUCACGUGCGCGUGAAAGUGAGACGUGAACCAGAGAAACACACGUUGUGGUAUAUUACCUGGUA has a self-cleavage of 0.171. GUCCUCUUUCACGUGCGCGUGAAAGUGAGAAGUGAACCAGAGAAACACACGUUGUGGUUUAUUACCUGGUA gave a self-cleavage of 0.108. GUCCUCUUUCACGUGCGCGUGAAAGUGAGAAGUGAGCCAGAGAAACACACGUUGUGGUAUAUUACCUGGUA gave a self-cleavage of 0.723. Variant GUCCUCUUUCACGUGCGCGUGAAAGGGAUAAGUGAACCAGAGAAACACACGUUGUGGUAUAUUACCUGGUA has a self-cleavage of 0.0885. Work on GUCCUCUUUCACGUGCGCGUGAAAGGGAGAAGUGAACCAGAGAAACACACGUUGUGGUAUAUUAUCUGGUA yielded a self-cleavage of 0.311. With GUCCUCUUUCACGUGCGCGUGAAAGUGAGCAGUGAACCAGAGAAACACACGUUGUGGUAUAUUACCUGGUA the self-cleavage was 0.205. With GUCCUCUUUCACGUGCGCGUGAAAGGGAGAAGUGAACCAGAGAAACACACGUUGUGGUAUAGUACCUGGUA the self-cleavage was 0.0228. Variant GUCCUCUUUCACGUGCGCGUGAAAGGGAGAAGUGAACCAGAGAAACACACGUUGUGGUAUACUACCUGGUA has a self-cleavage of 0.277. With GUCCUCUUUCACGUGCGCGUGAAAGGGAGAAGUGAACCAGAGAAACACACGUUGUGGUAUAAUACCUGGUA the self-cleavage was 0.228. For GUCCUCUUUCACGUGCGCGUGAAAGGGAGAAGUGAACCAGAGAAACACACGUUGUAGUAUAUUACCUGGUA, the self-cleavage was 0.271. GUCCUCUUUCACGUGCGCGUGAAAGGGAGAAGUAAACCAGAGAAACACACGUUGUGGUAUAUUACCUGGUA gave a self-cleavage of 1.19. In the case of GUCCUCUUUCACGUGCGCGUGAAAGGGAGAAGUUAACCAGAGAAACACACGUUGUGGUAUAUUACCUGGUA, the self-cleavage is reported as 1.37. GUCCUCUUUCACGUGCGCGUGAAAGGGAGAAGUGAACCAGAGAAACACACGUUGUGGUAUAUUACCGGGUA showed a self-cleavage of 0.281. Variant GUCCUCUUUCACGUGCGCGUGAAAGUGGGAAGUGAACCAGAGAAACACACGUUGUGGUAUAUUACCUGGUA has a self-cleavage of 1. For GUCCUCUUUCACGUGCGCGUGAAAGGGAGAAGUGAACCAGACAAACACACGUUGUGGUAUAUUACCUGGUA, the self-cleavage was 0.357. GUCCUCUUUCACGUGCGCGUGAAAGGGAGAAGUGAACCAGAAAAACACACGUUGUGGUAUAUUACCUGGUA gave a self-cleavage of 0.245. Work on GUCCUCUUUCACGUGCGCGUGAAAGGGAGAAGUGAACCAGAUAAACACACGUUGUGGUAUAUUACCUGGUA yielded a self-cleavage of 0.371. In the case of GUCCUCUUUCACGUGCGCGUGAAAGUGAGAAGUGAACCAGAGAAACCCACGUUGUGGUAUAUUACCUGGUA, the self-cleavage is reported as 0.151. With GUCCUCUUUCACGUGCGCGUGAAAGUGAGAAGUGAACCAGAGAAACACACGUUGUGGUAUGUUACCUGGUA the self-cleavage was 0.187. GUCCUCUUUCACGUGCGCGUGAAAGUGAGAAGUGAACCAGAGAAACACACGUUGUGGUAUCUUACCUGGUA gave a self-cleavage of 0.226. GUCCUCUUUCACGUGCGCGUGAAAGGGAGAAGUGAACCAGAGAAACACACGUUCUGGUAUAUUACCUGGUA gave a self-cleavage of 0.457. Variant GUCCUCUUUCACGUGCGCGUGAAAGGGAGAAGUGAACCAGAGAAACACACGUUGUGGUAUAUUACCUUGUA has a self-cleavage of 0.131. With GUCCUCUUUCACGUGCGCGUGAAAGGGAGAACUGAACCAGAGAAACACACGUUGUGGUAUAUUACCUGGUA the self-cleavage was 0.144. With GUCCUCUUUCACGUGCGCGUGAAAGGGAGAAUUGAACCAGAGAAACACACGUUGUGGUAUAUUACCUGGUA the self-cleavage was 0.121. Variant GUCCUCUUUCACGUGCGCGUGAAAGGGAGAAGUGAACCAGAGAAACACACGUUGUGGUAAAUUACCUGGUA has a self-cleavage of 0.763. For GUCCUCUUUCACGUGCGCGUGAAAGGGAGAAGUGAACCAGAGAAACACACGUUGUGGUACAUUACCUGGUA, the self-cleavage was 0.963. GUCCUCUUUCACGUGCGCGUGAAAGUGAGAAGUGAACCAGAGCAACACACGUUGUGGUAUAUUACCUGGUA showed a self-cleavage of 0.098. GUCCUCUUUCACGUGCGCGUGAAAGGGAGAAGUGAACCAGAGAAACACACGUUGUGGCAUAUUACCUGGUA gave a self-cleavage of 1.02. GUCCUCUUUCACGUGCGCGUGAAAGGGAGAAGUGAACCAAAGAAACACACGUUGUGGUAUAUUACCUGGUA showed a self-cleavage of 0.302. GUCCUCUUUCACGUGCGCGUGAAAGGGAGAAGUGAACCACAGAAACACACGUUGUGGUAUAUUACCUGGUA gave a self-cleavage of 0.167. GUCCUCUUUCACGUGCGCGUGAAAGGGAGAAGUGAACCAGAGAAACACACGUUGUGGUAUAUUACCUGCUA gave a self-cleavage of 0.403. Variant GUCCUCUUUCACGUGCGCGUGAAAGGGAGAAGUGAACCAGAGAAACACACGUUGUGGUAUAUUACCUGUUA has a self-cleavage of 0.204. GUCCUCUUUCACGUGCGCGUGAAAGGGAGAAGUGAACCAGAGAAACACACGUUGUGCUAUAUUACCUGGUA gave a self-cleavage of 0.103. In the case of GUCCUCUUUCACGUGCGCGUGAAAGGGAGAAGUGAACCAGAGAAACACACGUUGUGAUAUAUUACCUGGUA, the self-cleavage is reported as 0.196.
